Key:
[1] = system: SK-MEL-23 melanoma cell line; experiment: RIZ D283 allele transcript expression after demethylating agent; type: cell-based, human; conditions: 3 uM, cultured 3 to 6 days
Procedure: RNA samples from the 20 heterozygous melanoma cell lines were sequenced to determine if both alleles were transcribed in the cell or if only one allele was transcribed (ie. monoallelic expression). Sequencing was performed on DNA products produced by reverse transcription-PCR (RT-PCR) amplification using specific RIZ primers. RT-PCR amplification was performed according to the manufacturer's instructions (GeneAmp RNA PCR kit; Perkin Elmer). A 640 bp fragment encoding RIZ exons 5-7 was obtained from transcription of 1 μg of total RNA using the SSO 82 primer (SEQ ID NO: 93) and PCR amplification using the SSO 24 primer (5′[…]3′; SEQ ID NO: 106) and the SSO 82 primer (SEQ ID NO: 93). The amplified fragment was gel purified and sequenced using primer SSO 82 and a CircumVent™ Thermal Cycle DNA Sequencing kit (New England Biolabs; Beverly Mass.). The sequencing products were analyzed on a […] sequencing gel.
The SK-MEL-23 melanoma cell line was cultured for 3 to 6 days with 3 uM of the demethylating agent 5-azacytidine.

[2] = target: T1, Rb from HT1080 cell extract (Homo sapiens, UniProt P06400); experiment: GST-RIZ (215-462) glutathione-agarose pull-down of Rb from cell extract, anti-Rb immunoblot; type: binding; conditions: 4 μg GST-RIZ (215-462)
T1 construct: endogenous in cells; host or cells: HT1080 cells (lysate)
T1 sequence (P06400 1-928): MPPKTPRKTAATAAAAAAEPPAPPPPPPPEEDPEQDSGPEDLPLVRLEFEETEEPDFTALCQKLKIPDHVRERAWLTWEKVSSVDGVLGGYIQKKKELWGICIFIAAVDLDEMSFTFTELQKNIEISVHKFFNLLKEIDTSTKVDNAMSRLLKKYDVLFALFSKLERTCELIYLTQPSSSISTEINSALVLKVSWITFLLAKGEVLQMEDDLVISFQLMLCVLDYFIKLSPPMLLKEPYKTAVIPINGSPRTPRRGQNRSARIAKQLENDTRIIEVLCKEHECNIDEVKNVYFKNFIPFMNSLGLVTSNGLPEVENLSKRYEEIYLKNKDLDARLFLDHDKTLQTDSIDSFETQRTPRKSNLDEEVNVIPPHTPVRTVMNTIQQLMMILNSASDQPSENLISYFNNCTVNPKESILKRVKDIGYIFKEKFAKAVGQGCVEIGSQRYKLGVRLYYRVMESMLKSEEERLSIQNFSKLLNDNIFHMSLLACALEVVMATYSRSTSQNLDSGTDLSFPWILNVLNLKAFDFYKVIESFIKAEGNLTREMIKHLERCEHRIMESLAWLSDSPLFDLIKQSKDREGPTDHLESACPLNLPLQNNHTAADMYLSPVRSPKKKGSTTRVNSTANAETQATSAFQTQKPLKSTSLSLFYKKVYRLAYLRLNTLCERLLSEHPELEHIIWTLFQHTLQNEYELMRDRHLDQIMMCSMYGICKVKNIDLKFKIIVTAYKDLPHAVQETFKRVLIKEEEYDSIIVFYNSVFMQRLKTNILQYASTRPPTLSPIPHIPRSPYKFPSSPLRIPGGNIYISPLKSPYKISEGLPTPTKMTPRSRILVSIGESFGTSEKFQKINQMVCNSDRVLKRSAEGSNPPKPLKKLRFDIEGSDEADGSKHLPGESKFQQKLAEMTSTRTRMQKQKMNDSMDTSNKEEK
Procedure: Rat RIZ was tested for binding to Rb in HT1080 cells (ATCC #ICCL 121). The cells were grown in DMEM supplemented with […]. Cells were lysed in ELB buffer (50 mM HEPES, pH 7.5, 250 mM NaCl, 0.1% NP-40) supplemented with 5 mM EDTA, 50 mM NaF, 1 mM Na orthovanadate, 1 mM of DTT, aprotinin, leupeptin, and PMSF. The lysate was cleared of cell debris by centrifugation at 12,000 rpm for 10 min in a microfuge.
Binding between 4 μg GST-RIZ (215-462) and Rb from HT1080 cell extract was evaluated by first mixing the two, then binding GST-RIZ and any associated Rb to glutathione-agarose beads. The beads were washed in binding buffer and the bound complexes were eluted by boiling in SDS buffer and analyzed by immunoblotting with anti-Rb antiserum. Immunoblotting was performed by standard techniques (see, for example, Harlow and Lane, supra, 1988).

[3] = target: T2, full length RIZ (Rattus norvegicus, UniProt Q63755); experiment: RIZ homo-oligomer formation; type: binding
T2 construct: made in house; host or cells: in vitro translation (35S label; method not repeated for this protein)
T2 sequence (Q63755 whole entry): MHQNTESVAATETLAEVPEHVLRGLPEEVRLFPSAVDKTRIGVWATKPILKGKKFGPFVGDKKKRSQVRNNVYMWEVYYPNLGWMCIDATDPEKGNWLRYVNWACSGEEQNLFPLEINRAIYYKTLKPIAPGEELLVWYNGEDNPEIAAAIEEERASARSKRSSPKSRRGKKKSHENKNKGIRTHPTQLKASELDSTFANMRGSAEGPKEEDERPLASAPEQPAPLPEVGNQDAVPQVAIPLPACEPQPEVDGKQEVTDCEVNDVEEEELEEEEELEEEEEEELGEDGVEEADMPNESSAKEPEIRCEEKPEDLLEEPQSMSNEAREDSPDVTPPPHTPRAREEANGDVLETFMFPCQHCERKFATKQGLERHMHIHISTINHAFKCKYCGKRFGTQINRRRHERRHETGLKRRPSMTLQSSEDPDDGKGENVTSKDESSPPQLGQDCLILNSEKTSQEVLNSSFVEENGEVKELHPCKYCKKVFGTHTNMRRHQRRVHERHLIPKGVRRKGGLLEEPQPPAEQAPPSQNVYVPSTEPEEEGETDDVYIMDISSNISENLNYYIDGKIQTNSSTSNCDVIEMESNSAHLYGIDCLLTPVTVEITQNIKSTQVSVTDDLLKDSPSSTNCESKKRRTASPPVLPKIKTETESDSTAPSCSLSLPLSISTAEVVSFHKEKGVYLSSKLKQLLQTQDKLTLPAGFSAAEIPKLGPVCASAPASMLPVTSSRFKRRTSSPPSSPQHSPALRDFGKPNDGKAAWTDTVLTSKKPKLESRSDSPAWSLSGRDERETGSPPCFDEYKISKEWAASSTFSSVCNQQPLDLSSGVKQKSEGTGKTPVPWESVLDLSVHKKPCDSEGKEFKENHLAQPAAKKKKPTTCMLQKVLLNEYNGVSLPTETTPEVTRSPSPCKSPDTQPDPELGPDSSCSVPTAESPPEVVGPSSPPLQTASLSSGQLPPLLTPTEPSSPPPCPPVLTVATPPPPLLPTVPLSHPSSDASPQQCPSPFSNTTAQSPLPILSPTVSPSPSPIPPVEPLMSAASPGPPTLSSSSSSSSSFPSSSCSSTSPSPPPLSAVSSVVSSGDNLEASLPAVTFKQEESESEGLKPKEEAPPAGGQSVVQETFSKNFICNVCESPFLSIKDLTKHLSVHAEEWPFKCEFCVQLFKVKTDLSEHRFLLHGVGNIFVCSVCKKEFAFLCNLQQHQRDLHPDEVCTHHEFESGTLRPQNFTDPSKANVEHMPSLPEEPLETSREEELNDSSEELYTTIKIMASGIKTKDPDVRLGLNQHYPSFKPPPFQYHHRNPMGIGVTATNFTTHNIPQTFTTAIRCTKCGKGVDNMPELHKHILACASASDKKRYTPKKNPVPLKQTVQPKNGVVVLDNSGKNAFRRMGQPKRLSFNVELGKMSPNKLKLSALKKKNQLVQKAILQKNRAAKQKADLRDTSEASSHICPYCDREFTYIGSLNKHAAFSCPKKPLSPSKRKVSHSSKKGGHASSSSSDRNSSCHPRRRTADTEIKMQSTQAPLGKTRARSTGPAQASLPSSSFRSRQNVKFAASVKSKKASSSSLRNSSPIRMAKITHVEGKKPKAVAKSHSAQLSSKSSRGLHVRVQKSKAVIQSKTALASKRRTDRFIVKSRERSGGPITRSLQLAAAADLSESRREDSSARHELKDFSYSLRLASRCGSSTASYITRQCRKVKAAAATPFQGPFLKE

[4] = target: T3, 56 kD fragment of Rb (Homo sapiens, UniProt P06400); experiment: binding of 35S-labeled RIZ fragments to 56 kD Rb, immunoprecipitation with anti-Rb antiserum
T3 construct: p56 Rb: 56 kD fragment of Rb from a.a. position 379-928; made in house
T3 sequence (P06400 379-928): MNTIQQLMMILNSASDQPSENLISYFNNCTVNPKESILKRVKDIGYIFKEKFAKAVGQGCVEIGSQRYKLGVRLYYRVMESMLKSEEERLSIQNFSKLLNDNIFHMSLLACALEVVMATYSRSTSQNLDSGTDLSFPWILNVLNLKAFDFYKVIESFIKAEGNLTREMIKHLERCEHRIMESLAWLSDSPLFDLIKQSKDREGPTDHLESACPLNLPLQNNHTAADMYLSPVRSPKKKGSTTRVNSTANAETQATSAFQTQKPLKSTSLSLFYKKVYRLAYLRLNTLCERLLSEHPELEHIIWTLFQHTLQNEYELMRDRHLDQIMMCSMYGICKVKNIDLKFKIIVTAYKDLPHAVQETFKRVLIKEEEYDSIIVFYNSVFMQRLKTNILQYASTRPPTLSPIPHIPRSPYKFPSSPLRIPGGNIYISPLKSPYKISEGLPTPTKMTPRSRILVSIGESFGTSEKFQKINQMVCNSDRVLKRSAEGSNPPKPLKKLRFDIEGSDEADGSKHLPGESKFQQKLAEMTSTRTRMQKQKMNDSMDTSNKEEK
Procedure: To characterize the interaction between RIZ and Rb, a ^35S-labeled fragment of rat RIZ from amino acid position 245-883 (RIZ (245-883)) was produced by subcloning the 1.9 kb insert of clone 7.1 into PBKS+ (Stratagene) to yield plasmid pBKS+7.1. […] The larger size obtained by SDS-PAGE is likely due to anomalous mobility of the RIZ fragment on the gel.
A 56 kD fragment of Rb produced by bacterial expression from p56Rb plasmid, as described previously (Huang et al., supra, 1991), was tested for binding to radiolabeled RIZ (245-883). Binding was detected by immunoprecipitation with an anti-Rb antiserum and Protein A-Sepharosew™ (Huang et al., supra, 1990), which is incorporated herein by reference; and Huang et al., supra, 1991) followed by SDS-PAGE and autoradiography (see Harlow and Lane, supra, 1988). The rabbit anti-Rb antiserum was produced to purified p56Rb using previously described methods (see Harlow and Lane, supra, 1988).
The amount of binding of RIZ by Rb in the immunoprecipitation reaction was dependent on the concentration of Rb added. Full binding of ^35S-labeled RIZ (245-883) was achieved by 10 nM Rb but not 3.3 nM Rb (not shown). […]
Binding between labeled RIZ (1-575) and the glycine mutant with 33 nM Rb was evaluated by immunoprecipitation with anti-Rb antiserum followed by SDS-PAGE and autoradiography.

Molecule: Nc1ncn([C@@H]2O[C@H](CO)[C@@H](O)[C@H]2O)c(=O)n1 [5-azacytidine]
- effect on reduced expression of RIZ D283 transcripts [1]: unaffected

B1: GST-RIZ (215-462): purified rat RIZ (a.a. position 215-462) fused C-terminal to glutathionine S-transferase (protein)
chain: PLASAPEQPAPLPEVGNQDAVPQVAIPLPACEPQPEVDGKQEVTDCEVNDVEEEELEEEEELEEEEEEELGEDGVEEADMPNESSAKEPEIRCEEKPEDLLEEPQSMSNEAREDSPDVTPPPHTPRAREEANGDVLETFMFPCQHCERKFATKQGLERHMHIHISTINHAFKCKYCGKRFGTQINRRRHERRHETGLKRRPSMTLQSSEDPDDGKGENVTSKDESSPPQLGQDCLILNSEKTSQEVLN
modifications: left off: a dimerising Fc or GST
notes: purified rat RIZ (a.a. position 215-462) fused C-terminal to glutathionine S-transferase
- binding to Rb from HT1080 cell extract [2]: bound to the fastest migrating forms of Rb
- binding to 35S-labeled full length RIZ (homo-oligomer formation) [3]: lack of binding

B2: RIZ (1-575): fragment of RIZ from amino acid position 1-575 (protein)
chain: MHQNTESVAATETLAEVPEHVLRGLPEEVRLFPSAVDKTRIGVWATKPILKGKKFGPFVGDKKKRSQVRNNVYMWEVYYPNLGWMCIDATDPEKGNWLRYVNWACSGEEQNLFPLEINRAIYYKTLKPIAPGEELLVWYNGEDNPEIAAAIEEERASARSKRSSPKSRRGKKKSHENKNKGIRTHPTQLKASELDSTFANMRGSAEGPKEEDERPLASAPEQPAPLPEVGNQDAVPQVAIPLPACEPQPEVDGKQEVTDCEVNDVEEEELEEEEELEEEEEEELGEDGVEEADMPNESSAKEPEIRCEEKPEDLLEEPQSMSNEAREDSPDVTPPPHTPRAREEANGDVLETFMFPCQHCERKFATKQGLERHMHIHISTINHAFKCKYCGKRFGTQINRRRHERRHETGLKRRPSMTLQSSEDPDDGKGENVTSKDESSPPQLGQDCLILNSEKTSQEVLNSSFVEENGEVKELHPCKYCKKVFGTHTNMRRHQRRVHERHLIPKGVRRKGGLLEEPQPPAEQAPPSQNVYVPSTEPEEEGETDDVYIMDISSNISENLNYYIDGKIQTNSSTS
- binding to Rb in vitro (FIG. 4) [4]: specifically binds
